B1: T317A: modified iCasp9, T317A (protein)
chain: VDGFGDVGALESLRGNADLAYILSMEPCGHCLIINNVNFCRESGLRTRTGSNIDCEKLRRRFSSLHFMVEVKGDLTAKKMVLALLELARQDHGALDCCVVVILSHGCQASHLQFPGAVYGTDGCPVSVEKIVNIFNGTSCPSLGGKPKLFFIQACGGEQKDHGFEVASTSPEDESPGSNPEPDAAPFQEGLRTFDQLDAISSLPTPSDIFVSYSTFPGFVSWRDPKSGSWYVETLDDIFEQWAHSEDLQSLLLRVANAVSVKGIYKQMPGCFNFLRKKLFFKTSASRA
B2: S183A: modified iCasp9, S183A (protein)
chain: VDGFGDVGALESLRGNADLAYILSMEPCGHCLIINNVNFCRESGLRTRTGANIDCEKLRRRFSSLHFMVEVKGDLTAKKMVLALLELARQDHGALDCCVVVILSHGCQASHLQFPGAVYGTDGCPVSVEKIVNIFNGTSCPSLGGKPKLFFIQACGGEQKDHGFEVASTSPEDESPGSNPEPDATPFQEGLRTFDQLDAISSLPTPSDIFVSYSTFPGFVSWRDPKSGSWYVETLDDIFEQWAHSEDLQSLLLRVANAVSVKGIYKQMPGCFNFLRKKLFFKTSASRA
B3: S196A: modified iCasp9, S196A (protein)
chain: VDGFGDVGALESLRGNADLAYILSMEPCGHCLIINNVNFCRESGLRTRTGSNIDCEKLRRRFSALHFMVEVKGDLTAKKMVLALLELARQDHGALDCCVVVILSHGCQASHLQFPGAVYGTDGCPVSVEKIVNIFNGTSCPSLGGKPKLFFIQACGGEQKDHGFEVASTSPEDESPGSNPEPDATPFQEGLRTFDQLDAISSLPTPSDIFVSYSTFPGFVSWRDPKSGSWYVETLDDIFEQWAHSEDLQSLLLRVANAVSVKGIYKQMPGCFNFLRKKLFFKTSASRA
B4: D330A-S144A: modified iCasp9 double mutant (protein)
chain: VDGFGDVGALEALRGNADLAYILSMEPCGHCLIINNVNFCRESGLRTRTGSNIDCEKLRRRFSSLHFMVEVKGDLTAKKMVLALLELARQDHGALDCCVVVILSHGCQASHLQFPGAVYGTDGCPVSVEKIVNIFNGTSCPSLGGKPKLFFIQACGGEQKDHGFEVASTSPEDESPGSNPEPDATPFQEGLRTFDQLAAISSLPTPSDIFVSYSTFPGFVSWRDPKSGSWYVETLDDIFEQWAHSEDLQSLLLRVANAVSVKGIYKQMPGCFNFLRKKLFFKTSASRA
B5: D330E: modified iCasp9, D330E (protein)
chain: VDGFGDVGALESLRGNADLAYILSMEPCGHCLIINNVNFCRESGLRTRTGSNIDCEKLRRRFSSLHFMVEVKGDLTAKKMVLALLELARQDHGALDCCVVVILSHGCQASHLQFPGAVYGTDGCPVSVEKIVNIFNGTSCPSLGGKPKLFFIQACGGEQKDHGFEVASTSPEDESPGSNPEPDATPFQEGLRTFDQLEAISSLPTPSDIFVSYSTFPGFVSWRDPKSGSWYVETLDDIFEQWAHSEDLQSLLLRVANAVSVKGIYKQMPGCFNFLRKKLFFKTSASRA
B6: D330V: modified iCasp9, D330V (protein)
chain: VDGFGDVGALESLRGNADLAYILSMEPCGHCLIINNVNFCRESGLRTRTGSNIDCEKLRRRFSSLHFMVEVKGDLTAKKMVLALLELARQDHGALDCCVVVILSHGCQASHLQFPGAVYGTDGCPVSVEKIVNIFNGTSCPSLGGKPKLFFIQACGGEQKDHGFEVASTSPEDESPGSNPEPDATPFQEGLRTFDQLVAISSLPTPSDIFVSYSTFPGFVSWRDPKSGSWYVETLDDIFEQWAHSEDLQSLLLRVANAVSVKGIYKQMPGCFNFLRKKLFFKTSASRA
B7: A316G: modified iCasp9, A316G (protein)
chain: VDGFGDVGALESLRGNADLAYILSMEPCGHCLIINNVNFCRESGLRTRTGSNIDCEKLRRRFSSLHFMVEVKGDLTAKKMVLALLELARQDHGALDCCVVVILSHGCQASHLQFPGAVYGTDGCPVSVEKIVNIFNGTSCPSLGGKPKLFFIQACGGEQKDHGFEVASTSPEDESPGSNPEPDGTPFQEGLRTFDQLDAISSLPTPSDIFVSYSTFPGFVSWRDPKSGSWYVETLDDIFEQWAHSEDLQSLLLRVANAVSVKGIYKQMPGCFNFLRKKLFFKTSASRA
B8: L329E: modified iCasp9, L329E (protein)
chain: VDGFGDVGALESLRGNADLAYILSMEPCGHCLIINNVNFCRESGLRTRTGSNIDCEKLRRRFSSLHFMVEVKGDLTAKKMVLALLELARQDHGALDCCVVVILSHGCQASHLQFPGAVYGTDGCPVSVEKIVNIFNGTSCPSLGGKPKLFFIQACGGEQKDHGFEVASTSPEDESPGSNPEPDATPFQEGLRTFDQEDAISSLPTPSDIFVSYSTFPGFVSWRDPKSGSWYVETLDDIFEQWAHSEDLQSLLLRVANAVSVKGIYKQMPGCFNFLRKKLFFKTSASRA
B9: D330G: modified iCasp9, D330G (protein)
chain: VDGFGDVGALESLRGNADLAYILSMEPCGHCLIINNVNFCRESGLRTRTGSNIDCEKLRRRFSSLHFMVEVKGDLTAKKMVLALLELARQDHGALDCCVVVILSHGCQASHLQFPGAVYGTDGCPVSVEKIVNIFNGTSCPSLGGKPKLFFIQACGGEQKDHGFEVASTSPEDESPGSNPEPDATPFQEGLRTFDQLGAISSLPTPSDIFVSYSTFPGFVSWRDPKSGSWYVETLDDIFEQWAHSEDLQSLLLRVANAVSVKGIYKQMPGCFNFLRKKLFFKTSASRA
B10: D330S: modified iCasp9, D330S (protein)
chain: VDGFGDVGALESLRGNADLAYILSMEPCGHCLIINNVNFCRESGLRTRTGSNIDCEKLRRRFSSLHFMVEVKGDLTAKKMVLALLELARQDHGALDCCVVVILSHGCQASHLQFPGAVYGTDGCPVSVEKIVNIFNGTSCPSLGGKPKLFFIQACGGEQKDHGFEVASTSPEDESPGSNPEPDATPFQEGLRTFDQLSAISSLPTPSDIFVSYSTFPGFVSWRDPKSGSWYVETLDDIFEQWAHSEDLQSLLLRVANAVSVKGIYKQMPGCFNFLRKKLFFKTSASRA
B11: D330N: modified iCasp9, D330N (protein)
chain: VDGFGDVGALESLRGNADLAYILSMEPCGHCLIINNVNFCRESGLRTRTGSNIDCEKLRRRFSSLHFMVEVKGDLTAKKMVLALLELARQDHGALDCCVVVILSHGCQASHLQFPGAVYGTDGCPVSVEKIVNIFNGTSCPSLGGKPKLFFIQACGGEQKDHGFEVASTSPEDESPGSNPEPDATPFQEGLRTFDQLNAISSLPTPSDIFVSYSTFPGFVSWRDPKSGSWYVETLDDIFEQWAHSEDLQSLLLRVANAVSVKGIYKQMPGCFNFLRKKLFFKTSASRA

Entries after “also recorded” stand apart in the source; their conditions may differ.

For this assay, the system named is HEK293T/16 cells. Kind of assay: Secreted alkaline phosphatase (SEAP)-based surrogate killing assay of iCasp9 mutants. Format: cell-based, human. The note with it: SEAP assay without AP1903. How it is done: Early passage HEK293T/16 cells (ATCC, Manassas, Va.) were maintained in IMDM, GlutaMAX™ (Life Technologies, Carlsbad, Calif.) supplemented with 10% FBS, 100 U/mL penicillin, and 100 […] until transfection in a humidified, 37° C., 5% CO2/95% air atmosphere. Cells in logarithmic-phase growth were transiently transfected with 800 ng to 2 μg of expression plasmid encoding iCasp9 mutants and 500 ng of an expression plasmid encoding SRα promoter driven SEAP per million cells in 15-mL conical tubes. […] GeneJammer® Transfection Reagent at a ratio of 3 μl per ug of plasmid DNA was used to transiently transfect HEK293T/16 cells in the absence of antibiotics. 100 μl or 2 mL of the transfection mixture was added to each well in 96-well or 6-well plate, respectively.
Briefly, after 65° C. heat denaturation for 45 minutes to reduce background caused by endogenous (and serum-derived) alkaline phosphatases that are sensitive to heat, 5 μl of supernatants was added to 95 μl of PBS and added to 100 μl of substrate buffer, containing 1 μl of 100 mM 4-methylumbelliferyl phosphate (4-MUP; Sigma, St. Louis, Mo.) re-suspended in 2 M diethanolamine. Hydrolysis of 4-MUP by SEAP produces a fluorescent […] with excitation/emission (355/460 nm), which can be easily measured. Assays were performed in black opaque 96-well plates to minimize fluorescence leakage between wells. […] of the mixture was seeded onto each well of a 96-well plate. […] For the assay, 4-methylumbelliferyl phosphate substrate was hydrolyzed by SEAP to 4-methylumbelliferon, a metabolite that can be excited with 364 nm and detected with an emission filter of 448 nm. Since SEAP is used as a marker for cell viability, reduced SEAP reading corresponds with increased iCaspase-9 activities.
In the case of B1, the “Basal Activity (relative to wild type/unmodified Caspase-9)” value is on record as “lower basal activity; also recorded: reduce basal activity; also recorded: Decreased”.

As to B2, the “Basal Activity (relative to wild type/unmodified Caspase-9)” value is listed as “Decreased”.

As for B3, the “Basal Activity (relative to wild type/unmodified Caspase-9)” value is “Decreased”. The value for B4 was “Decreased”; that for B5 was “less basal activity than wild type Caspase-9; also recorded: Decreased”; that for B6 was “less basal activity than wild type Caspase-9; also recorded: Decreased”.

Turning to B7, the “Basal Activity (relative to wild type/unmodified Caspase-9)” value was “lower basal activity; also recorded: Decreased”.

As to B8, the “Basal Activity (relative to wild type/unmodified Caspase-9)” value is “Decreased”. The result for B9 reads “less basal activity than wild type Caspase-9; also recorded: Decreased”. For the molecule B10, the “Basal Activity (relative to wild type/unmodified Caspase-9)” value is “less basal activity than wild type Caspase-9; also recorded: Decreased”. Take B11: the “Basal Activity (relative to wild type/unmodified Caspase-9)” value is recorded as “less basal activity than wild type Caspase-9; also recorded: Decreased”.

(Values after patent US20230065562A1, “DUAL CONTROLS FOR THERAPEUTIC CELL ACTIVATION OR ELIMINATION” (Bellicum Pharmaceuticals, Inc., priority 2015, published 2023).)
